Laboratory results reported in PMC10718521, “Complexity of αvβ6-integrin targeting RGD peptide trimers: emergence of non-specific binding by synergistic interaction” (RSC Medicinal Chemistry, 2023).

System: H2009 bearing SCID mice
Conditions: mouse, in vivo
Method: Fig. 3 Positron emission tomography (PET) of severe combined immunodeficient (SCID) mice bearing subcutaneous H2009 (human lung adenocarcinoma) xenografts on the right shoulder. Dynamic scans for determination of biokinetics (a and b) were recorded in list mode and reconstructed in multiple frames with increasing time spans. Static images (c and d) were recorded over 20 min, 75 min after tracer administration, and reconstructed as single frames using the OSEM3D algorithm. […]
Unless otherwise noted, the materials and the instrumentation used (analytical and preparative HPLC, ESI-MS, gamma counter, centrifuge), and the experimental procedures (^68Ga radiolabeling and radio-TLC for quality control, determination of log D7.4, cultivation of H2009 human lung adenocarcinoma cells, generation of tumor xenografts in CB17 SCID mice, small-animal PET, and biodistribution) were described before.[19] […] The affinities of the pentynoic amide functionalized peptides were determined employing a well-established ELISA protocol on immobilized integrins.[36] […]

## CC(C)C[C@@H]1NC(=O)[C@H](CC(=O)O)NC(=O)CNC(=O)[C@H](CCCNC(=N)N)NC(=O)[C@H](Cc2ccc(O)cc2)NC(=O)[C@H](CCCCNC(=O)CCc2cn(CCCNC(=O)CCP(=O)(O)CN3CCN(CP(=O)(O)CCC(=O)NCCCn4cc(CCC(=O)NCCCC[C@H]5C(=O)N[C@@H](Cc6ccc(O)cc6)C(=O)N[C@@H](CCCNC(=N)N)C(=O)NCC(=O)N[C@@H](CC(=O)O)C(=O)N[C@@H](CC(C)C)C(=O)N[C@@H](C)C(=O)N[C@@H](Cc6ccc(O)cc6)C(=O)N6CCC[C@@H]6C(=O)N5C)nn4)CCN(CP(=O)(O)CCC(=O)NCCCn4cc(CCC(=O)NCCCC[C@H]5C(=O)N[C@@H](Cc6ccc(O)cc6)C(=O)N[C@@H](CCCNC(=N)N)C(=O)NCC(=O)N[C@@H](CC(=O)O)C(=O)N[C@@H](CC(C)C)C(=O)N[C@@H](C)C(=O)N[C@@H](Cc6ccc(O)cc6)C(=O)N6CCC[C@@H]6C(=O)N5C)nn4)CC3)nn2)N(C)C(=O)[C@H]2CCCN2C(=O)[C@H](Cc2ccc(O)cc2)NC(=O)[C@H](C)NC1=O [Y6]
  Kinetic data Blood: 13.14 ± 1.99
